Test results published in EP4342988A1 (Eberhard Karls Universität Tübingen, Medizinische Fakultät, dated 2024).

Key:
[1] = biological target: T1, CTCF (CCCTC-binding factor / Transcriptional repressor CTCF) (UniProt P49711 1-727); assay: anti-Flag pull-down of tagged THAP1 from HEK-293 nuclear extract (TAP), Western blot
T1 sequence (looked up): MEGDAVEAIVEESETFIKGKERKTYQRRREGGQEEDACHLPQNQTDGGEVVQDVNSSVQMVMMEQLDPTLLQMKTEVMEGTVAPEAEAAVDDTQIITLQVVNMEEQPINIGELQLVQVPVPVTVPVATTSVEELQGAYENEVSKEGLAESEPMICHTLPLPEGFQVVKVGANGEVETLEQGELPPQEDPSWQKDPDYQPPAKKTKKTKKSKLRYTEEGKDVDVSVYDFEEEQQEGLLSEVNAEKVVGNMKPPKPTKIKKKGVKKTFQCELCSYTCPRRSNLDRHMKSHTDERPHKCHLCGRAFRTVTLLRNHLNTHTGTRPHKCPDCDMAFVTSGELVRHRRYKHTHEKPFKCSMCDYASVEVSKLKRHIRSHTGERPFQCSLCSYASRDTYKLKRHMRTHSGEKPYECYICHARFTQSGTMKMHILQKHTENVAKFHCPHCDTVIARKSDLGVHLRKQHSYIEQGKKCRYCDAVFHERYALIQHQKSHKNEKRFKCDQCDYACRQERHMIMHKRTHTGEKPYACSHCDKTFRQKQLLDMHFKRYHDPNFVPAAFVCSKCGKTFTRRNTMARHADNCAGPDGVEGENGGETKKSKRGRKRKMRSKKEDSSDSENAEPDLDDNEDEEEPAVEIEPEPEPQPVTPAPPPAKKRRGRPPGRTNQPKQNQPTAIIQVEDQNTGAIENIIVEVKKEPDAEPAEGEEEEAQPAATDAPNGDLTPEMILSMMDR

[2] = biological target: 149 proteins which strongly interact with THAP1; assay: TAP-MS, anti-Flag pull-down of tagged THAP1 against empty vector, LC-MS/MS peak area ratios

B1: Strep/FLAG tagged THAP1 protein (other, human, UniProt Q9NVV9 1-213, looked up)
chain: MVQSCSAYGCKNRYDKDKPVSFHKFPLTRPSLCKEWEAAVRRKNFKPTKYSSICSEHFTPDCFKRECNNKLLKENAVPTIFLCTEPHDKKEDLLEPQEQLPPPPLPPPVSQVDAAIGLLMPPLQTPVNLSVFCDHNYTVEDTMHQRKRIHQLEQQVEKLRKKLKTAQQRCRRQERQLEKLKEVVHFQKEKDDVSERGYVILPNDYFEIVEVPA
notes: Bait of the TAP-MS pull-down from nuclear extract of HEK-293 cells on anti-Flag M2 agarose, with benzonase added; also called wild-type THAP1; hTHAP1; not shown: Strep/FLAG tag
- binding result [1]: binds
- log2 (TAP-MS ratio) [2]: 15 log2
